Biological target: Pre-cleaved FUS (tag-free Fused in sarcoma) (UniProt P35637)
Assay: fluorescence correlation spectroscopy

UniProt P35637, sequence (P35637 whole entry, the tested form may be a part): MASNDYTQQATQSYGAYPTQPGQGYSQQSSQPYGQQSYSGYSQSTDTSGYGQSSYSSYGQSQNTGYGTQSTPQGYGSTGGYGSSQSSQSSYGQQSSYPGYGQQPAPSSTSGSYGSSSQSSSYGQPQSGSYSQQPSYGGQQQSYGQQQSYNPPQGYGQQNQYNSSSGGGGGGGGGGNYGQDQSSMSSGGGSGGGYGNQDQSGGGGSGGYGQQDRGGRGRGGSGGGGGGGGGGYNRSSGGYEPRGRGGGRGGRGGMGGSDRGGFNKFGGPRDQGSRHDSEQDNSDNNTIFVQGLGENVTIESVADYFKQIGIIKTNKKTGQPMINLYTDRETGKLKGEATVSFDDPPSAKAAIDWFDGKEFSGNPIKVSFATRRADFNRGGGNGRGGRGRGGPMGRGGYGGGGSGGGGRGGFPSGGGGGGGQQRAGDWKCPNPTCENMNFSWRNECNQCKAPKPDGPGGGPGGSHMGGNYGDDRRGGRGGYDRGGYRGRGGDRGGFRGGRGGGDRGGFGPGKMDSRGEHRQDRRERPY

“Cy3-labeled pre-cleaved FUS (from UniProt P35637 1-526) (natural protein)” gave a second critical concentration (condensate formation) of 1 µM.

— publication PMC12612064
